T1: Human Trop-2-mFc (Homo sapiens, UniProt P09758)
T1 construct: Monomeric Trop-2 extracellular domain prepared from papain digestion of Trop-2-Fc fusion protein
T1 sequence (P09758 27-274 limits assumed): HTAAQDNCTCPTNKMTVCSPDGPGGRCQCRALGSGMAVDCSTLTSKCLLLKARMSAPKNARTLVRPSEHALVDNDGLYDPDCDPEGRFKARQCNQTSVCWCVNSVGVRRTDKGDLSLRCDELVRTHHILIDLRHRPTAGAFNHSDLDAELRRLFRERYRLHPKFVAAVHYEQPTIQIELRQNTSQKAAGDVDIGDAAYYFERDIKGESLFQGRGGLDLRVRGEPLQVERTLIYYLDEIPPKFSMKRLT

T2: human Trop-2-hFc (Homo sapiens, UniProt P09758)
T2 construct: Monomeric Trop-2 extracellular domain prepared from papain digestion of Trop-2-Fc fusion protein
T2 sequence (P09758 27-274 limits assumed): T1 sequence (P09758 27-274 limits assumed)

B1: h7E6_SVGL: humanized anti-Trop-2 antibody, VL SEQ ID NO: 6, VH SEQ ID NO: 5 (antibody, V domains shown)
VH: QVQLQESGPGLVKPSETLSLTCTVSGGSISSYGVHWIRQPPGKGLEWIGVIWTSGVTDYNSALMGRVTISVDTSKNQFSLKLSSVTAADTAVYYCARDGDYDRYTMDYWGQGTLVTVSS
VL: DIVMTQSPDSLAVSLGERATINCRASKSVSTSLYSYMHWYQQKPGQPPKLLIYLASNLESGVPDRFSGSGSGTDFTLTISSLQAEDVAVYYCQHSRELPYTFGQGTKLEIK
B2: h7E6_L: humanized anti-Trop-2 antibody comprising SEQ ID NOs: 4 and 6 (antibody, V domains shown)
VH: B1 VH with S54G, V56S, G65S
VL: B1 VL
B3: h7E6: humanized anti-Trop-2 antibody, VL SEQ ID NO: 3, VH SEQ ID NO: 4 (antibody, V domains shown)
VH: B1 VH with S54G, V56S, G65S
VL: B1 VL with L33G
B4: h6G11: humanized anti-Trop-2 antibody, VL SEQ ID NO: 10, VH SEQ ID NO: 11 (antibody, V domains shown)
VH: QVQLVQSGAEVKKPGASVKVSCKASGYTFTSYWINWVRQAPGQGLEWMGNIYPSDSYSNYNQKFKDRVTMTRDTSTSTVYMELSSLRSEDTAVYYCARGSSFDYWGQGTLVTVSS
VL: EIVLTQSPATLSLSPGERATLSCRASQTIGTSIHWYQQKPGQAPRLLIYYASESISGIPARFSGSGSGTDFTLTISSLEPEDFAVYYCQQSNSWPFTFGQGTKLEIK
B5: h6G11_FKG_SF: humanized anti-Trop-2 antibody, VL SEQ ID NO: 12, VH SEQ ID NO: 13 (antibody, V domains shown)
VH: B4 VH with Y52F, Q62K, S101G
VL: B4 VL with Q89S, N92F
B6: h7E6SVG-LCQ04/K222R-vc0101: h7E6SVG K222R with light chain LCQ04 tag conjugated with AcLys-vc-PABC-0101 (conjugate)
VH: B1 VH
VL: B1 VL with L33G
B7: h7E6-N-TG1-vcMMAD: h7E6_N hIgG1 with TG1 tag conjugated with AcLys-vcMMAD (conjugate)
VH: B1 VH with S54G, V56S, G65S
VL: B1 VL with L33N
B8: h7E6-WT-TG1-vcMMAD: h7E6-WT hIgG1 with TG1 tag conjugated with AcLys-vcMMAD (conjugate)
VH: B1 VH with S54G, V56S, G65S
VL: B1 VL with L33G
B9: h7E6-SVGL-TG1-vcMMAD: h7E6_SVGL hIgG1 with TG1 tag conjugated with AcLys-vcMMAD (conjugate)
VH: B1 VH
VL: B1 VL
B10: h7E6-L-TG1-vcMMAD: h7E6_L hIgG1 with TG1 tag conjugated with AcLys-vcMMAD (conjugate)
VH: B1 VH with S54G, V56S, G65S
VL: B1 VL
B11: h7E6-SVGN-TG1-vcMMAD: h7E6_SVGN hIgG1 with TG1 tag conjugated with AcLys-vcMMAD (conjugate)
VH: B1 VH
VL: B1 VL with L33N
B12: h7E6_SVGN: humanized anti-Trop-2 antibody, VL SEQ ID NO: 7, VH SEQ ID NO: 5 (antibody, V domains shown)
VH: B1 VH
VL: B1 VL with L33N
B13: h7E6_N: humanized anti-Trop-2 7E6 antibody, presumably VH SEQ ID NO: 4 with VL_N SEQ ID NO: 7 (antibody, V domains shown)
VH: B1 VH with S54G, V56S, G65S
VL: B1 VL with L33N

The text below walks through data of patent US10100114B2, “Antibodies specific for TROP-2 and their uses” (RINAT NEUROSCIENCE CORP., priority 2011, dated 2018).

Substitutions are numbered along the chain they refer to. Names and notes keep the numbering of the source. Where only a bound is given, the exact number is not on record here.

The subject of one assay is cynomolgus monkey Trop-2-hFc. Briefly: Biacore SPR affinity of chimeric and humanized 7E6 Fab, cynomolgus Trop-2. The note with it: recombinant Fab fragments injected over captured cynomolgus monkey Trop-2-hFc. Type of assay: binding. An excerpt:
(§1) The human Trop-2-hFc or cynomolgus monkey Trop-2-hFc proteins were captured on the CM5 EDA chip 37 sensor surface coupled with anti-human Fc.
(SPR reads the build-up and loss of mass on a sensor chip optically.)
Regarding B1, the “ka” value was found to be 130000 M⁻¹ s⁻¹ and the “kd” value was 7.42e-05 s⁻¹.
With B2, the “ka” value turned out to be 126000 M⁻¹ s⁻¹ and the “kd” value was found to be 0.000335 s⁻¹.
For the molecule B3, the “ka” value was 144000 M⁻¹ s⁻¹ and the “kd” value came to 0.00635 s⁻¹.

A further assay has as its target T1, Human Trop-2-mFc. Briefly: Biacore SPR affinity of humanized 6G11 Fab. Type of assay: binding. The note with it: Fab fragments injected over captured human Trop-2-mFc. Here is the method: The affinities of humanized 6G11 antibodies were measured on a surface plasmon resonance Biacore™ 2000 biosensor equipped with a research-grade CM5 sensor chip (Biacore™ AB, Uppsala, Sweden—now GE Healthcare). Human Trop-2-mFc protein was captured on the CM5 chip coupled with anti-mouse Fc. Human 6G11_WT or Human 6G11_FKG_SF chimeric Fab fragments were injected as 3 fold dilution series.
As for B4, the “ka” value was 360000 M⁻¹ s⁻¹ and the “kd” value was 0.0096 s⁻¹.
As for B5, the “ka” value was 640000 M⁻¹ s⁻¹ and the “kd” value came to 0.00038 s⁻¹.

For the next assay, the system named is BxPC3 xenograft. Nature of the assay: In vivo efficacy of humanized Trop-2 ADCs, pancreatic tumor BxPC3 xenograft model. Set-up: species or system CB17/SCID mice. To be noted: single dose, tail vein; FIGS. 9A-9C. How it is done:
In vivo efficacy studies of Trop-2 ADCs were performed with target-expressing BxPC3 xenograft model. Two million BxPC3 pancreatic cancer cells were implanted subcutaneously into 5-8 weeks old CB17/SCID mice until the tumor sizes reached between 300-400 mm^3. […] Tumor volume was measured once a week by a Caliper device and calculated with the following formula: Tumor volume=(length×width^2)/2. Studies were terminated before their tumor volumes reached 2000 mm^3.
B6: the “tumor response, BxPC3 xenograft” value is recorded as “tumor regression”.

A further assay has as its system SW620 cells (Trop-2 non-expressing). Briefly: Cytotoxicity of ADCs (CellTiter-Glo), SW620. Type of assay: cell-based. To be noted: Table 12; SW620 (Trop-2−); 96 hours after treatment. How it is done: Target expressing (A431, BxPC3, CAPAN-2 and Colo205) or non-expressing (SW620) cells were seeded on white walled clear bottom plates at 2000 cells/well for 24 hours before treatment. Cells were treated with 4 fold serially diluted antibody-drug conjugates in triplicates. Cell viability was determined by CellTiter-Glo® Luminescent Cell Viability Assay 96 (Promega, Madison Wis.) 96 hours after treatment. Relative cell viability was determined as percentage of untreated control. IC50 was calculated by Prism software.
2-methylalanyl-N-[(3R,4S,5S)-3-methoxy-1-{(2S)-2-[(1R,2R)-1-methoxy-2-methyl-3-oxo-3-{[(1S)-2-phenyl-1-(1,3-thiazol-2-yl)ethyl]amino}propyl]pyrrolidin-1-yl}-5-methyl-1-oxoheptan-4-yl]-N-methyl-L-valinamide is a novel auristatin, as described in U.S. Application Nos. 61/561,255 and 61/676,423. Method of conjugating Trop-2 antibodies using transglutaminase tags is described in Example 9. Target expressing or non-expressing (SW620) cells were seeded on white walled clear bottom plates at 2000 (A431, BxPC3, NCI-H292, NCI-H1650, MDA-MB-468 and SW620), 2500 (Calu-3) or 3000 (OVCAR3 and SKBR3) cells per well for 24 hours before treatment. Cells were treated with 4 fold serially diluted antibody-drug conjugates in triplicates. Cell viability was determined by CellTiter-Glo® Luminescent Cell Viability Assay 96 (Promega, Madison, Wis.) 96 hours after treatment. Relative cell viability was determined as percentage of untreated control. IC50 was calculated by GraphPad Prism 5 software and expressed as concentration (nM) of total Ab.
Take B7: the “Ab-IC50” value stood at 11.150 µg/mL.
In the case of B8, the “Ab-IC50” value turned out to be 10.330 µg/mL.
For the molecule B9, the “Ab-IC50” value is 10.800 µg/mL.
Still for that read-out and setting: with B10 the figure was 8.535 µg/mL; with B11, 10.410 µg/mL.

The same assay, now with this note: Table 12; SW620 (Trop-2−); 96 hours after treatment; read-out: Ab-IC50.
For orientation: IC50 means the point on the concentration scale where inhibition reaches its midpoint. For B7, the IC50 is 74.3 nM.
Same read-out and setting: under B8 stands 68.9 nM; under B9, 72 nM.
The same measure, in the same setting: with B10 the figure was 56.9 nM; with B11, 69.4 nM.

Staying with this assay, now noted: Table 13; SW620, Trop2 expression −; 96 hours; concentration of total Ab.
With B6, the IC50 was > 267 nM.

The test system of the next assay is SW620 (Trop-2 −) cells. Nature of the assay: Flow cytometry binding, SW620 cells. It counts as cell-based. The note with it: Table 10, 300,000 cells, 1 ug antibody. Here is the method:
For A431 cell staining, 200,000 cells were incubated with 0.5 ug antibody in 100 uL binding buffer (PBS (Phosphate Buffered Saline)+0.5% BSA (Bovine Serum Albumin)), followed by incubation with Dylight488-conjugated goat anti-human (Fab′)2-specific secondary antibody from Jackson immunoresearch Laboratories (West Grove, Pa.). For Colo205 and SW620 cells, 300,000 cells were used with 1 ug of primary antibody, followed by AlexaFluor 647 anti-human (Fab′)2-specific secondary antibody from Jackson immunoresearch Laboratories (West Grove, Pa.).
Similar to Example 7a), binding of chimeric mouse and humanized anti-Trop-2 6G11 antibodies (expressed in human IgG1 subtype) were assessed on Trop-2 expressing (A431 and Colo205) and non-expressing (SW620) cells by flow cytometry. 300,000 cells were used with 1 ug of primary antibody, followed by AlexaFluor 647 anti-human (Fab′)2-specific secondary antibody.
(Flow cytometry measures light scatter and fluorescence of single cells or particles in a stream.)
In the case of B1, the “% positive” value stood at 2.6% and the MFI is reported as 135.
As for B2, the “% positive” value was found to be 2.5% and the MFI is 158.
Regarding B12, the “% positive” value was 2.5% and the MFI is 140.
Consider B13, for which the “% positive” value was found to be 2.3% and the MFI turned out to be 151.
Regarding B3, the “% positive” value amounted to 2.1% and the MFI was determined as 143.

Staying with this assay, now noted: Table 11, 300,000 cells, 1 ug antibody.
Consider B4, for which the “% positive” value came out at 3.9% and the MFI is 154.
B5: the “% positive” value was 2.5% and the MFI amounted to 157.

The target in a further assay is T2, human Trop-2-hFc. Nature of the assay: Biacore SPR affinity of chimeric and humanized 7E6 Fab, human Trop-2. Type of assay: binding. To be noted: recombinant Fab fragments injected over captured human Trop-2-hFc.
Text: as §1
For B1, the “ka” value turned out to be 131000 M⁻¹ s⁻¹ and the “kd” value worked out at 3.27e-05 s⁻¹.
Take B2: the “ka” value was 130000 M⁻¹ s⁻¹ and the “kd” value turned out to be 0.00015 s⁻¹.
The matching figures for B3: 139000 M⁻¹ s⁻¹ and 0.00294 s⁻¹.
